Measurements: patent US11448657B2, “Methods and kits for assessing Heparanase procoagulant activity, compositions comprising Heparanase, and methods for the treatment of coagulation-related disorders” (RAMBAM MED-TECH, priority 2011, dated 2022)

Tests used:
[1] = target: T1, TF-factor VIIa complex (Homo sapiens, UniProt P13726); assay: Activated factor X generation assay with purified TF, factor VIIa and factor X (chromogenic substrate); format: biochemical
T1 construct: purchased American Diagnostica (Stanford, Conn., USA)
T1 sequence (P13726 33-295): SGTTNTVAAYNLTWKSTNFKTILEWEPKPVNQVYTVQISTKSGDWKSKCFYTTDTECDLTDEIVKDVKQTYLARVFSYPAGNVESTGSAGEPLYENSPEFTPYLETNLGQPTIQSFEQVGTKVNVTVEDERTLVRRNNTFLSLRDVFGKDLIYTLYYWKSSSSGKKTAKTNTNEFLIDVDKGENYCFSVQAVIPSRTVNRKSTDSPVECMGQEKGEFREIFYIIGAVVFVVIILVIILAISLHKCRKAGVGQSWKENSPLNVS
T1 sequence (P08709 61-212 partner limits assumed): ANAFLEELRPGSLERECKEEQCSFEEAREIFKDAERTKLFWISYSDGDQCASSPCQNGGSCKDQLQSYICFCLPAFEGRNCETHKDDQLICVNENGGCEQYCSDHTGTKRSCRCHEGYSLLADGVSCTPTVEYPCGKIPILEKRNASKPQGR
T1 sequence (P08709 213-466 partner limits assumed): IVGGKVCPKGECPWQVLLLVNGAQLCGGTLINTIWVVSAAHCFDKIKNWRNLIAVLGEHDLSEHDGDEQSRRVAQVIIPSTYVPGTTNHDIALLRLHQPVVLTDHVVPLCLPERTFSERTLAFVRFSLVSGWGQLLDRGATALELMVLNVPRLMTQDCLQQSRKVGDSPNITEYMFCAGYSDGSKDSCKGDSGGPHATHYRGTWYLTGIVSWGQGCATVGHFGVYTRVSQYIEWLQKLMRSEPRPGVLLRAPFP
Experimental: FIG. 1A. Recombinant human TF, recombinant human factor VIIa, and plasma-derived human factor X were incubated (15 min, 37° C.) in a total assay volume of 125 μL. Chromogenic substrate for the detection of factor Xa was then added (final concentration 1 mM). Recombinant active heparanase GS3 (Hepa) was added prior to the addition of the coagulation factors. The mean value±SD of three independent experiments in shown. […]
FIG. 1C. […] The mean value of two experiments is shown. Note a 2-fold increase in coagulation activity when the medium contained heparanase or its derivatives.
Following preliminary experiments to quantify the appropriate protein doses, we performed a basic experiment of factor Xa generation in the following manner: the concentrations mentioned are the final concentrations. Lipidated recombinant human TF (0.004 μM, […]), recombinant human factor VIIa (0.04 μM) and plasma-derived human factor X (1.4 μM) were incubated in 50 μL assay buffer (0.06 M Tris, 0.04 M NaCl, 2 mM CaCl 2, 0.04% bovine serum albumin, pH 8.4) to a total volume of 125 μL in a 96-well sterile plate. After 15 min at 37° C., chromogenic substrate for factor Xa was added (1 mM). After 20 min, the reaction was stopped with 50 μL of glacial acetic acid and the level of factor Xa generation was determined using an enzyme-linked immunosorbent assay (ELISA) plate reader (Power Wave XS, BIO-TEK, VT, USA). In order to visualize the increased production of factor Xa by western blotting, the experiment was repeated with 7 μM factor X. After 15 min at 37° C., half of the reaction volume was subjected to blotting using monoclonal anti-human factor X/Xa heavy chain antibody.
The factor Xa generation assay was performed as described in the Design and Methods section with increasing doses of recombinant human heparanase (GS3) added prior to the addition of the coagulation factors. […] It should be noted that factor X is composed of two polypeptide chains, a heavy chain with a molecular weight of 38 kDa and a light chain with a molecular weight of 18 kDa joined by a dipeptide Arg-Arg. The factor VIIa-TF complex activates the conversion of factor X to factor Xa by cleaving the heavy chain to a 33 kDa peptide. […] In order to exclude contamination of the heparanase preparation during the routine procedure of purification described in the Design and Methods section, the inventors tested the effect of overnight serum-free without phenol medium of 293 HEK cells over-expressing heparanase and its derivatives compared to mock. The proteins were further purified from the culture medium and analyzed. Similar quantities of proteins were obtained from the culture media.

[2] = target: T1, TF-factor VIIa complex; assay: Thrombin generation: prothrombin added to the factor Xa generation assay (chromogenic substrate for thrombin); format: biochemical; conditions: prothrombin 222 μM added, 15 min 37° C.
Experimental: FIG. 1D. Heparanase increases thrombin levels. Recombinant human TF, recombinant human factor VIIa, plasma-derived human factor X, and plasma-derived human prothrombin were incu-bated (15 min, 37° C.) in a total volume of 125 μL. Chromogenic substrate for the detection of thrombin was then added (1 mM). Human recombinant heparanase (Hepa) was added prior to the addition of the coagulation factors. The mean value±SD of three independent experiments is shown. Note a 3-fold increase in coagulation activity in the presence of heparanase.
In order to verify that factor Xa produced in the presence of heparanase is active, thrombin generation, the next step in the coagulation cascade, was examined. The experiment described above (FIG. 1A) was repeated and plasma-derived human prothrombin (222 μM) was added following the addition of factor X. After 15 minutes at 37° C., chromogenic substrate for thrombin was added (1 mM). In the presence of heparanase, thrombine generation was increased (FIG. 1D).

[3] = target: T2, TF (Homo sapiens, UniProt P13726); assay: Far-western analysis of heparanase binding to TF and TFPI; conditions: heparanase 1 μg/mL, 2 h, 4° C.; TF 100 ng, TFPI 100 ng
T2 construct: purchased American Diagnostica (Stanford, Conn., USA)
T2 sequence (P13726 33-295): as the sequence (P13726 33-295) above
Experimental: FIG. 7B. Far-western analysis. Recombinant TF (100 ng) and TFPI (100 ng) were resolved by SDS-PAGE under reducing conditions using a 10% gradient polyacrylamide gel. After electrophoresis, proteins were transferred to a polyvinylidene fluoride membrane. The membrane was incubated for 2 h with GS3 active heparanase protein (1 μg/mL, 4° C.). Next, the membrane was probed with anti-heparanase antibody followed by horseradish peroxidase-conjugated secondary antibody and chemiluminescence substrate, as described in the Design and Methods section.

B1: heparanase: single chain GS3 active heparanase, comprised of the 8 kDa and 50 kDa heparanase heterodimer (8+50), recombinant human (protein, listed as Homo sapiens)
chain 1: DPAQDVVDLDFFTQEPLHLVSPSFLSVTIDANLATDPRFLILLGSPKLRTLARGLSPAYLRFGGTKTDFLIFDPKKE
chain 2: DPGKKFKNSTYSRSSVDVLYTFANCSGLDLIFGLNALLRTADLQWNSSNAQLLLDYCSSKGYNISWELGNEPNSFLKKADIFINGSQLGEDFIQLHKLLRKSTFKNAKLYGPDVGQPRRKTAKMLKSFLKAGGEVIDSVTWHHYYLNGRTATREDFLNPDVLDIFISSVQKVFQVVESTRPGKKVWLGETSSAYGGGAPLLSDTFAAGFMWLDKLGLSARMGIEVVMRQVFFGAGNYHLVDENFDPLPDYWLSLLFKKLVGTKVLMASVQGSKRRKLRVYLHCTNTDNPRYKEGDLTLYAINLHNVTKYLRLPYPFSNKQVDKYLLRPLGPHGLLSKSVQLNGLTLKMVDDQTLPPLMEKPLRPGSSLGLPAFSYSFFVIRNAKVAACI
modifications: single-chain GS3 linker
[1]; TF, factor VIIa, factor X, 15 min 37° C., heparanase added prior to the coagulation factors
  increase in coagulation activity (factor Xa level): 2 fold
[1]; absence of sufficient factor VIIa
  effect on Xa generation at reduced factor VIIa: effect of heparanase was abolished
[1]; overnight serum-free medium of 293 HEK cells over-expressing heparanase species, compared to mock
  increase in factor Xa levels: 2 fold
[1]; very low levels of TF (3.13 μg)
  Xa generation at reduced TF: increased Xa generation by three folds
[1]; without TF, factor VIIa or factor X, or with inactivated VIIa
  factor Xa generation in incomplete reaction mixture: Factor Xa was not generated
[2]
  increase in coagulation activity (thrombin level): 3 fold
[3]
  binding to TF and TFPI on membrane: A clear band was revealed in the TF-heparanase lane but not in the TFPI-heparanase lane
